Experimental data published in patent publication EP1068241B1.

What was measured:
human C1q (human) [1] = target: human C1q (human) (UniProt P02745); assay: cell-based or functional assay
CD20 antigen = CD20 antigen (UniProt P11836); assay: flow cytometry on WIL2-S cells
human C1q (human) [2] = target: human C1q (human) (UniProt P02745); assay: C1q binding ELISA
[3] = target: FcγRIIIa α subunit ECD-6His-GST fusion protein (UniProt P08637); assay: ELISA, E27:chimeric IgE:VEGF immune complex on coated receptor
[4] = target: FcγRIIa α subunit ECD-6His-GST fusion protein (UniProt P12318); assay: as above
[5] = target: FcγRIIb α subunit ECD-6His-GST fusion protein (UniProt P31994); assay: as above
[6] = target: FcγRI α subunit-GST fusion (UniProt P12314); assay: ELISA on coated FcγRI α subunit-GST fusion, IgG at 10 µg/ml
Sequence of FcγRI α subunit-GST fusion (P12314 other isoform, or with tags, fused parts or gaps): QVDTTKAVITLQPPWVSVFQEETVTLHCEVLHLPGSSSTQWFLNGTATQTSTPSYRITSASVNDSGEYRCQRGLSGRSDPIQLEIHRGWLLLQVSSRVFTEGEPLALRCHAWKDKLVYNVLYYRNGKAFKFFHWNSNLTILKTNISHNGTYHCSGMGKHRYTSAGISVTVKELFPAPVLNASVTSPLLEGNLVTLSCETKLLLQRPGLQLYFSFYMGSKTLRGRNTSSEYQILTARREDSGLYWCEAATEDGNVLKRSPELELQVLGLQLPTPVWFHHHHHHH

Sequence of CD20 antigen (P11836 whole entry): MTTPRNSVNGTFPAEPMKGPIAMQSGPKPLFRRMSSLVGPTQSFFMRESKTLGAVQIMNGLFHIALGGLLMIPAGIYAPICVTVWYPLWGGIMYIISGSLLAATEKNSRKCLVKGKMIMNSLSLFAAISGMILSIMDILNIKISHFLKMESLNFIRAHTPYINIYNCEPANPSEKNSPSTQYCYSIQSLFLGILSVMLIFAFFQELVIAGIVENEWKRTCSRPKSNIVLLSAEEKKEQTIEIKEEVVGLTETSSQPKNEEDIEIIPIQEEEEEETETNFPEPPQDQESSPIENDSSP
Sequence of FcγRIIa α subunit ECD-6His-GST fusion protein (P12318 other isoform, or with tags, fused parts or gaps): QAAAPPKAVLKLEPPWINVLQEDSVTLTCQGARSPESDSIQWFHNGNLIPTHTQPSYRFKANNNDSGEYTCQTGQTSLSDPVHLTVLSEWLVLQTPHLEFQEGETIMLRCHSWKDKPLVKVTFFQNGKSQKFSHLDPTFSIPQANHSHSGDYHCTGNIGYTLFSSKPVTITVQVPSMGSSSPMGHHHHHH
Sequence of human C1q (human) (P02745 23-245 limits assumed, chain 1 of 3): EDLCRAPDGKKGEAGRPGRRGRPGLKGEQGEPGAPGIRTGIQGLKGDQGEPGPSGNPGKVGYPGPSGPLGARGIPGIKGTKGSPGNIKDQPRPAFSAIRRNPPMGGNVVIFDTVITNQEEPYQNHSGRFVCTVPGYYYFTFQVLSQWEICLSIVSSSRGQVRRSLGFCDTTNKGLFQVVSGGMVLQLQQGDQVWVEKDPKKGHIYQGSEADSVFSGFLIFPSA
Sequence of human C1q (human) (P02746 28-253 limits assumed, chain 2 of 3, further chain): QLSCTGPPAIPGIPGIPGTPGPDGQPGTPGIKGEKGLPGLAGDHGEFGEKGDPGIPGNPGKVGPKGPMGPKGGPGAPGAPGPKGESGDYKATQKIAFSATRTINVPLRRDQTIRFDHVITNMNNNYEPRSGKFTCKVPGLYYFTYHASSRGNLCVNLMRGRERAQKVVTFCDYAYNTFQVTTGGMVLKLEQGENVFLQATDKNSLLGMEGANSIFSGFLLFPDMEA
Sequence of human C1q (human) (P02747 29-245 limits assumed, chain 3 of 3, further chain): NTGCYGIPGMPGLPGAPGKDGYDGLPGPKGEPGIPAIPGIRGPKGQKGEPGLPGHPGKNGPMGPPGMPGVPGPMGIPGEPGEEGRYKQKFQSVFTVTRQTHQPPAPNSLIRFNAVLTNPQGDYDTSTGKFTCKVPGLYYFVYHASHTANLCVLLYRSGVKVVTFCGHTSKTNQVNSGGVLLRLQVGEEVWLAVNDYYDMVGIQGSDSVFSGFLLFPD
Sequence of FcγRIIIa α subunit ECD-6His-GST fusion protein (P08637 other isoform, or with tags, fused parts or gaps): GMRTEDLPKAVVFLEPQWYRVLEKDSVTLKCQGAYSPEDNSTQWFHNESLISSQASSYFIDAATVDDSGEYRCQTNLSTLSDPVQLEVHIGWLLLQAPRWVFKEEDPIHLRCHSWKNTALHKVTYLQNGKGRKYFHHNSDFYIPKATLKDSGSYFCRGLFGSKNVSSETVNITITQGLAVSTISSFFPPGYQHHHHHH
Sequence of FcγRIIb α subunit ECD-6His-GST fusion protein (P31994 other isoform, or with tags, fused parts or gaps): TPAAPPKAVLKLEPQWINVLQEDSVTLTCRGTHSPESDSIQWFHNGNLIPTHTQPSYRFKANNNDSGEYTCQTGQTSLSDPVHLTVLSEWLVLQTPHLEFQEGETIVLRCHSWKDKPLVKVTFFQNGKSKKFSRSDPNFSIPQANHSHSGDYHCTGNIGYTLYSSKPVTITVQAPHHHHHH

Substance | CDC (percentage of the wild type) (human C1q (human) [1]) [%] | EC50 as percentage of the wild type (CD20 antigen) [%] | decrease in binding against wild type C2B8 (human C1q (human) [2]) [%] | binding as percentage of the wild type [3] [%] | binding as percentage of the wild type [4] [%] | binding as percentage of the wild type [5] [%] | binding as percentage of the wild type [6] [%] | fold lower binding than wild type C2B8 (human C1q (human) [2]) [fold]
C2B8 mutant E318A (antibody) | 108 | 89 | 30 | – | – | – | – | –
wild type E27 anti-IgE antibody | – | – | – | 100 | 100 | 100 | 100 | –
C2B8 mutant P329A (antibody) | – | 112 | – | – | – | – | – | –
E27 anti-IgE antibody mutant P329A | – | – | – | 85 | – | – | 104 | –
E27 anti-IgE antibody mutant K320A | – | – | – | 72 | – | 83 | 102 | –

The remaining lines, values ahead:

CDC (percentage of the wild type) (human C1q (human) [1]) [%] | EC50 as percentage of the wild type (CD20 antigen) [%] | decrease in binding against wild type C2B8 (human C1q (human) [2]) [%] | binding as percentage of the wild type [3] [%] | binding as percentage of the wild type [4] [%] | binding as percentage of the wild type [5] [%] | binding as percentage of the wild type [6] [%] | fold lower binding than wild type C2B8 (human C1q (human) [2]) [fold] | Substance
– | – | – | 73 | 86 | 58 | 74 | – | E27 anti-IgE antibody mutant P331A
– | 103 | – | – | – | – | – | 60 | C2B8 mutant P331A (antibody)
– | – | – | 90 | 109 | 101 | 90 | – | E27 anti-IgE antibody mutant K322A
108 | 102 | – | – | – | – | – | – | C2B8 mutant K320A (antibody)
– | – | – | 104 | 113 | 106 | 93 | – | E27 anti-IgE antibody mutant E318A
